# Reference: PMC6487875
# B1: GOT1 (glutamate oxaloacetate transaminase 1, aspartate aminotransferase 1) (Homo sapiens) (protein)
# chain: APPSVFAEVPQAQPVLVFKLTADFREDPDPRKVNLGVGAYRTDDCHPWVLPVVKKVEQKIANDNSLNHEYLPILGLAEFRSCASRLALGDDSPALKEKRVGGVQSLGGTGALRIGADFLARWYNGTNNKNTPVYVSSPTWENHNAVFSAAGFKDIRSYRYWDAEKRGLDLQGFLNDLENAPEFSIVVLHACAHNPTGIDPTPEQWKQIASVMKHRFLFPFFDSAYQGFASGNLERDAWAIRYFVSEGFEFFCAQSFSKNFGLYNERVGNLTVVGKEPESILQVLSQMEKIVRITWSNPPAQGARIVASTLSNPELFEEWTGNVKTMADRILTMRSELRARLEALKTPGTWNHITDQIGMFSFTGLNPKQVEYLVNEKHIYLLPSGRINVSGLTTKNLDYVATSIHEAVTKIQ
# Substrate: N[C@@H](CC(=O)O)C(=O)O
# Test: GLOX/HRP-coupled enzyme kinetics
# Format: biochemical, Homo sapiens
# Settings: PLP
protein,measurement,value
B1,Km,4 mM
